Experimental data as given in article PMC3411786.

Tests used:
[1] = molecular target: Asp85 (UniProt position 98, WARYADWLFTA); experiment: UV-vis; conditions: pH adjusted with 0.1 M HCl or NaOH, Retinal-reconstituted chromoprotein in purple membrane, ground state. Light/dark adaptation state during the titration is not stated.
[2] = molecular target: Asp85 (UniProt position 98, WARYADWLFTT); experiment: UV-vis; conditions: pH adjusted with 0.1 M HCl or NaOH, Retinal-reconstituted chromoprotein in purple membrane, ground state. Light/dark adaptation state during the titration is not stated.
[3] = 150 mM KCl, none stated (Methods say non-buffered)
[4] = Deionised water with no added salt, apart from the HCl/NaOH titrant, none (non-buffered)

Substance	pKa [1, 3]	pKa [1, 4]	pKa [2, 3]	pKa [2, 4]
Bacteriorhodopsin T90A, bacterioopsin reconstituted with 13-ethyl retinal (T90A-13E-RET) (Halobacterium salinarum; T90A)	6.4	6.7	–	–
Bacteriorhodopsin T90A, bacterioopsin reconstituted with all-trans retinal (T90A-AT) (Halobacterium salinarum; T90A)	5.8	6.1	–	–
Bacteriorhodopsin, wild-type bacterioopsin reconstituted with 13-ethyl retinal (WT-13E-RET) (Halobacterium salinarum)	–	–	4.5	4.7
Bacteriorhodopsin, wild-type bacterioopsin reconstituted with all-trans retinal (WT-AT) (Halobacterium salinarum)	–	–	3.9	4.6
